The target in assay [1] is T1, CLDN18.2.
T1 construct: For the EC50 it stood on overexpressing cells; also called claudin18.2; CLDN18.2过表达细胞
As to the kind of experiment: flow cytometry on CLDN18.2-overexpressing cells, MFI fitted in GraphPad Prism. (In general: In flow cytometry, cells or beads pass a laser one at a time.)

Assay [2] has as its target T1, CLDN18.2. Nature of the assay: kinetics, method not stated.

Here are results for two molecules from patent CN117567612A (CHINA RESOURCES BIOMEDICAL CO LTD, dated 2024).

B1: CLDN-BC-P1022-hH1 (antibody, V domains shown)
VH: QVQLVQSGGGLVQPGGSLRLSCAASGFTFSSYEMNWVRQAPGKGLEWVAYITGSGRTMYYADSVKGRITISRDNAKNSLYLQMNSLRAEDTAVYYCARYWNYAGGMDVWGQGTLVTVSS
VL: DIQMTQSPSSVSASVGDRVTITCRASQGISSWLAWYQQKPGKAPKLLIYAASSLQSGVPSRFSGSGSGTDFTLTISSLQPEDFATYYCQQANSFPLTFGGGTKVEIK
notes: detected with anti-human IgG Fc); P1022 is the only antibody of the application; also called CLN-P1022-hH1; 全人源抗体P1022
B1: the EC50 (commonly the concentration at which the effect is half-maximal) with CLDN18.2 [1] turned out to be 0.12 µg/mL.

B2: IMAB362 (antibody, V domains shown)
VH: QVQLQQPGAELVRPGASVKLSCKASGYTFTSYWINWVKQRPGQGLEWIGNIYPSDSYTNYNQKFKDKATLTVDKSSSTAYMQLSSPTSEDSAVYYCTRSWRGNSFDYWGQGTTLTVSS
VL: DIVMTQSPSSLTVTAGEKVTMSCKSSQSLLNSGNQKNYLTWYQQKPGQPPKLLIYWASTRESGVPDRFTGSGSGTDFTLTISSVQAEDLAVYYCQNDYSYPFTFGSGTKLEIKR
Turning to B2, in the assay with CLDN18.2 [2], the affinity, expressed as Kd, was 4.17 nM; the off-rate constant (koff) (as a rule, the first-order rate constant of dissociation) was determined as 0.00158 s⁻¹; the kon (in general, the second-order rate constant of association) was 378000 M⁻¹ s⁻¹. A half-maximal effect with CLDN18.2 [1] (EC50) was put at 1.75 µg/mL.
